One test relates to human ESC/iPSCs. The test can be described thus: iKCs derivation from human ESC/iPSCs: critical medium components. The format is cell-based. The conditions noted are these: Passage 0, Day 14 differentiation culture, anti-K14 immunofluorescence.
Test [1] concerns primary human keratinocytes. Briefly: Long-term culture of primary keratinocytes (population doubling). As to conditions: niacinamide 3 mM, BMP4 0.5 ng/mL as components of KCM4.
Protocol: Keratinocytes were maintained in the indicated medium and passaged every 4-5 days (at ˜80% confluence). For passage, keratinocytes were incubated with a 0.1% Trypsin in Versene solution at 37° C. for 5 minutes. The trypsin was neutralized with 0.5 mg/mL of trypsin inhibitor. The cells were centrifuged at 1200 rpm for 4 min. Cells were counted with a Cellometer (Nexcelom). Cells (25,000-50,000) were plated per well of 6-well plates in the indicated keratinocyte culture media. Media was changed every other day.
Cells were maintained by serial passage at ˜80% confluence until senescence. The total number of cell doublings for each passage was calculated using the following formula: 3.32 log(N/No). Where No refers to the number of cells plated at the beginning of each passage and N is the number of cells recovered at the end of each passage.

B1: FGF7: fibroblast growth factor FGF7 (protein, UniProt P21781 32-194, looked up)
Fibroblast growth factor 7: CNDMTPEQMATNVNCSSPERHTRSYDYMEGGDIRVRRLFCRTQWYLRIDKRGKVKGTQEMKNNYNIMEIRTVAVGIVAIKGVESEFYLAMNKEGKLYAKKECNEDCNFKELILENHYNTYASAKWTHNGGEMFVALNQKGIPVRGKKTKKEQKTAHFLPMAIT
As for B1, the “K14 expression with different fibroblast growth factors” value in the test with human ESC/iPSCs is “did not promote homogeneous K14 expression”.

B2: BMP4: growth factor BMP4, neuronal fate suppressor, medium supplement (protein, UniProt P12644 293-408, looked up)
Bone morphogenetic protein 4: SPKHHSQRARKKNKNCRRHSLYVDFSDVGWNDWIVAPPGYQAFYCHGDCPFPLADHLNSTNHAIVQTLVNSVNSSIPKACCVPTELSAISMLYLDEYDKVVLKNYQEMVVEGCGCR
Regarding B2, the “life span and stemness of primary keratinocytes in culture” value is on record as “maintained the stemness of primary keratinocyte stem cells in culture” in test [1] and “extend the life span of primary keratinocytes in culture” in test [1] (listed as BMP-4).

For the origin of these results see patent US10047341B2, “Generation of keratinocytes from pluripotent stem cells and maintenance of keratinocyte cultures” (FUJIFILM Cellular Dynamics, Inc., priority 2014, dated 2018).
